According to patent US20160355587A1:
Where a chain is given by its changes, count along the chain named.

T1: human CD166 protein (human) (UniProt Q13740)
T1 sequence (looked up): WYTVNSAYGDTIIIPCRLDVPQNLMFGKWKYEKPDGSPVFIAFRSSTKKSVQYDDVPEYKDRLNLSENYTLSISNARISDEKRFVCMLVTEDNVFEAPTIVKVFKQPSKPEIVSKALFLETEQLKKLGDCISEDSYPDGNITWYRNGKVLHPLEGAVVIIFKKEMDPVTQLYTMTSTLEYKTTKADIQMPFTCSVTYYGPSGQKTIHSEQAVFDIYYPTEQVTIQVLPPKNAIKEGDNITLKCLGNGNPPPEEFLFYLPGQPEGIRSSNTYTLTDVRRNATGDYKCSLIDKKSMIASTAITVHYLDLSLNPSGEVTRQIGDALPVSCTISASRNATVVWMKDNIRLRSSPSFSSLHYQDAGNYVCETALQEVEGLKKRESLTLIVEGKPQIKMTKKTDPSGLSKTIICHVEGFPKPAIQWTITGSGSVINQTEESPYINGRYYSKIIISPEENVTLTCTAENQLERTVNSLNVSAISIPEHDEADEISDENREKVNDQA

B1: CD166-16522.18-2001 (antibody, part only; not given: linkers and constant regions, V domains shown, not shown: small tags and cut ends)
VH: QITLKESGPTLVKPTQTLTLTCTFSGFSLSTYGMGVGWIRQPPGKALEWLANIWWSEDKHYSPSLKSRLTITKDTSKNQVVLTMTNMDPVDTATYYCVQIDYGNDYAFTYWGQGTLVTVSS
VL, part: LEGWCLHPACLWGAGISSGLLSGRSDNHDIVMTQSPLSLPVTPGEPASISCRSSKSLLHSNGITYLYWYLQKPGQSPQLLIYQMSNLASGVPDRFSGSGSGTDFTLKISRVEAEDVGVYYCAQNLELPYTFGQGTKLEIK
B2: CD166-16522.20-2001 (antibody, part only; not given: linkers and constant regions, V domains shown, not shown: small tags and cut ends)
VH: B1 VH
VL, part: B1 VL, part with A9L, W12A
B3: CD166-16522.21-2001 (antibody, part only; not given: linkers and constant regions, V domains shown, not shown: small tags and cut ends)
VH: B1 VH
VL, part: CLHPLCISSGLLSGRSDNHDIVMTQSPLSLPVTPGEPASISCRSSKSLLHSNGITYLYWYLQKPGQSPQLLIYQMSNLASGVPDRFSGSGSGTDFTLKISRVEAEDVGVYYCAQNLELPYTFGQGTKLEIK
B4: CD166-16522.19-2001 (antibody, part only; not given: linkers and constant regions, V domains shown, not shown: small tags and cut ends)
VH: B1 VH
VL, part: B1 VL, part with A9L, L11A

Key:
[1] = biological target: T1, human CD166 protein (human); assay: ELISA; relative to parental CD166 M9 vk1/HcB
[2] = biological target: T1, human CD166 protein (human); assay: ELISA, human CD166 protein coated; apparent Kd

Binder | Fold Increase in Kd [1] [fold] | Kd [2] [nM]
B1 | 13 | 57.7
B2 | 158 | 700
B3 | 33 | 145
B4 | 11 | 49.2
